Experimental data published in patent publication US20180052165A1.

Molecular target: human claudin-1 (human) (UniProt O95832)
Assay: confocal fluorescence on SW620 cells with control siRNA versus CLDN1 siRNA; non-significant

Chain of human claudin-1 (human) (O95832 whole entry): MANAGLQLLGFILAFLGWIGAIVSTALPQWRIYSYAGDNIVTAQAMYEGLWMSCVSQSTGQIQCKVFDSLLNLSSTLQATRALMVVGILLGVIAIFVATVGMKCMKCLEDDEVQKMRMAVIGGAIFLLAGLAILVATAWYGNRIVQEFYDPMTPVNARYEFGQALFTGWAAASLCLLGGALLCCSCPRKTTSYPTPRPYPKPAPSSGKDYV

fold-change of signal, siCL versus siCLDN1 cells: 0.8 fold
Substance: SPT*-Cy5.5 (control scrambled peptide SPTPSSR labeled with Cy5.5 via the GGGSK linker)
